From US8524227B2, “Anti-IL-TIF antibodies” (ZymoGenetics, Inc., priority 2002, dated 2013) come the findings set out here.

Data set [1] in a line: IL-TIF-induced acanthosis, subcutaneous mini-osmotic pump. The settings on record: for Average Acanthosis: score 0-4. Type of data set: in vivo, mice. As for the experimental part: Mice (female, C3H/HEJ, 8 weeks old; Jackson Labs, Bar Harbor, Me.) were divided into three groups of six animals and one group of 4. Human BHK-produced IL-TIF was administered by constant infusion via mini-osmotic pumps, resulting in local and steady state serum concentrations proportional to the concentration of the IL-TIF contained in the pump. Alzet mini-osmotic pumps (model 2002; Alza corporation Palo Alto, Calif.) were loaded under sterile conditions with IL-TIF protein (A601F, 0.22 mL) diluted in phosphate buffered saline (pH 7.0) to a concentration within the pump of 2 mg/mL for group 1 mice, 0.2 mg/mL for group 2 mice, 0.02 mg/mL for group 3 mice, or 0 mg/mL (diluent only) for group 4 mice. Pumps were implanted subcutaneously in mice through a 1 cm incision in the dorsal skin, and the skin was closed with sterile wound closures. These pumps are designed to deliver their contents at a rate of 0.5 μl per hour over a period of 14 days. Using this nominal rate of infusion, dose levels were calculated to be 24 μg/day, 2.4 μg/day, 0.24 μg/day and 0 μg/day for groups 1-4, respectively.
At the end of the 14-day period, the mice were euthanized and an approximately 1 cm square sample of skin surrounding the pump area was collected from each mouse. The skin was fixed in 10% neutral buffered formalin. Formalin fixed samples of skin were embedded in paraffin, routinely processed, sectioned at 5 um and stained with hematoxylin and eosin. The tissues were microscopically examined in blinded fashion by an ACVP board certified veterinary pathologist. […] In addition, the skin of selected groups was imaged with a CoolSnap digital camera (Roper Scientific, Inc., San Diego, Calif.) and epidermal thickness measured using histomorphometry software (Scion Image for Windows, v. 4.02, Scion Corp., Frederick, Md.).

The next data set relates to K-562 cells. The data set can be described thus: K-562 cytotoxicity assay (MTT). It counts as cell-based, human. The settings on record: 72 h. As for the experimental part:
The K-562 cell line (CRL-243, ATCC) has attained widespread use as a highly sensitive in vitro target for cytotoxicity assays. K-562 blasts are multipotential, hematopoietic malignant cells that spontaneously differentiate into recognizable progenitors of the erythrocytic, granulocytic and monocytic series (Lozzio, B B et al., Proc. Soc. Exp. Biol. Med. 166: 546-550, 1981).
K562 cells were plated at 5,000 cells/well in 96-well tissue culture clusters (Costar) in DMEM phenol-free growth medium (Life Technologies) supplemented with pyruvate and 10% serum (HyClone). Next day, human recombinant IL-TIF (Example 19), BSA control or retinoic acid (known to be cytotoxic to K562 cells) were added. Seventy-two hours later, the vital stain MTT (Sigma, St Louis, Mo.), a widely used indicator of mitochondrial activity and cell growth, was added to the cells at a final concentration of 0.5 mg/ml. MTT is converted to a purple formazan derivative by mitochondrial dehydrogenases. Four hours later, converted MTT was solubilized by adding an equal volume of acidic isopropanol (0.04N HCl in absolute isopropanol) to the wells. Absorbance was measured at 570 nm, with background subtraction at 650 nm. In this experimental setting, absorbance reflects cell viability. Results shown in Table 7 are expressed as % cytotoxicity.

For another data set, the target named is T1, IL-TIF (Homo sapiens, UniProt Q9GZX6).
T1 construct: made in house; host or cells: BHK cells
T1 sequence (Q9GZX6 34-179): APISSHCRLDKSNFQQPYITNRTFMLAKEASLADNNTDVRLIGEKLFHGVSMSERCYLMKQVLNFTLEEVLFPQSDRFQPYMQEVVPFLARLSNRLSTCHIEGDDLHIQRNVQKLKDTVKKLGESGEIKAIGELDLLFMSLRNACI
The experiment in a line: Effect of zcytor16 on IL-TIF-induced acanthosis. Type of data set: in vivo, mice. The settings on record: for Average Acanthosis: day 8, score 0-3. As for the experimental part: Mice (female, C3H/HEJ, 8 weeks old; Jackson Labs, Bar Harbor, Me.) were divided into eight groups of eight animals each. IL-TIF was administered by constant infusion via mini-osmotic pumps, as described in example 32a. Alzet mini-osmotic pumps (model 2001; Alza corporation Palo Alto, Calif.) were loaded under sterile conditions with IL-TIF protein (A#601F, 0.22 mL) diluted in phosphate buffered saline (pH 7.0) to a concentration within the pump of 0.22 mg/mL for group 1-2 mice, 0.45 mg/mL for group 3-4 mice, 0.9 mg/mL for group 5-6 mice, or 0 mg/mL (diluent only) for group 7-8 mice. These pumps are designed to deliver their contents at a rate of 0.5 μl per hour over a period of 14 days. Using this nominal rate of infusion, dose levels were calculated to be […] and 0 μg/day for groups 7-8. For each pair of groups at a given dose level of IL-TIF, one of the groups was injected three times (days 1, 3, and 5) with 0.1 mg of human zcytor16 Fc protein (described herein) by the interperitoneal route. The other group was injected in the same fashion with vehicle (PBS).
On day 8 of the study, mice were euthanized and an approximately 1 cm square sample of skin surrounding the pump area was collected from each mouse. The skin was fixed in 10% neutral buffered formalin. Formalin fixed samples of skin were embedded in paraffin, routinely processed, sectioned at 5 um and stained with hematoxylin and eosin. The tissues were microscopically examined in blinded fashion by an ACVP board certified veterinary pathologist. This study was scored in a different manner than the previous example. The number of layers in the epidermis, from stratum basalis to stratum granulosum, was determined Based on the results, the sections were scored as follows: O-normal (2-3 layers), 1-mild thickening (3-4 layers), 2-moderate thickening (4-6 layers) and 3-severe thickening (>6 layers).

B1: IL-TIF: pro-inflammatory cytokine polypeptide, SEQ ID NO:3; also designated IL-22 (protein, listed as Homo sapiens)
chain: MGTLATSCLLLLALLVQGGAAAPISSHCRLDKSNFQQPYITNRTFMLAKEASLADNNTDVRLIGEKLFHGVSMSERCYLMKQVLNFTLEEVLFPQSDRFQPYMQEVVPFLARLSNRLSTCHIEGDDLHIQRNVQKLKDTVKKLGESGEIKAIGELDLLFMSLRNACI
On to B1, for which the “Average Acanthosis” value was 2.2 in data set [1] (0.24 μg IL-TIF/day, 14 days); 2.4 in data set [1] (2.4 μg IL-TIF/day, 14 days); 3.0 in data set [1] (24 μg IL-TIF/day, 14 days); 1.1 with IL-TIF (pump 2.5 μg IL-TIF/day + 100 μL vehicle (3 injections)); 2.0 with IL-TIF (pump 5 μg IL-TIF/day + 100 μL vehicle (3 injections)); 2.0 with IL-TIF (pump 10 μg IL-TIF/day + 100 μL vehicle (3 injections)). In addition, the “Measured Thickness” value in data set [1] (2.4 μg IL-TIF/day, 14 days) worked out at 67.5 pixels. In addition, the skin histology result was “epidermal thickening” in data set [1] (2.4 and 24 μg/day); “epidermal thickening” with IL-TIF (IL-TIF at 2.5, 5, 10 μg/day). For the same molecule, in data set [1] (not observed in vehicle treated controls), the cell infiltrates entry is reported as “mononuclear cell infiltrates in the epidermis”. In addition, the “% Cytotoxicity” value with K-562 cells (100 ng/ml) amounted to 16.2%; in the data set on K-562 cells (300 ng/ml), 32%.
